Experimental data: patent US20260152557A1 (Adimab, published 2026)

Key:
[1] = biological target: T1, cynomolgus CD3 on HSC-F cells (cynomolgus, UniProt Q95LI5 22-198); assay: flow cytometry, yeast-produced IgG 100 nM on HSC-F cells, pH 6.0
T1 construct: whole, on cells; also called Cyno HSC-F; cynomolgus HSC-F cells
Method: (§1) Anti-CD3 antibodies Antibody Nos. 1-13 were produced as aglycosylated IgGs comprising a IgG1 Fc region in yeast cells. Binding to human or cynomolgus CD3-expressing cells (human CD3+ Jurkat cells or cynomolgus HSC-F cells, respectively) at pH 7.4 and pH 6.0 were measured by fluorescence-activated single cell sorting (FACS). Normalized cell binding (NCB) values were calculated based on median fluorescence intensity (MFI) values, CD3 negative Jurkat cells were used as a negative control.
(§2) Cell binding assay, CD3+ and CD3− human Jurkat cells (ATCC) and cynomolgus HSC-F cells (NIH) were thawed and washed with cold PBSF buffer, pH 7.4 (PBS+0.1% BSA, pH 7.4). About 200,000 cells were aliquoted per well of a 96-well plate (FACS Assay Plate VWR BD 353263) and pelleted by centrifugation (5 minutes at 500×g). The cells were washed with either PBSF pH 7.4 or PBSF pH 6.0 (PBS+0.1% BSA, pH 6.0), and then resuspended in 100 μl in either PBSF pH 7.4 or PBSF pH 6.0 with IgG antibody (100 nM) produced in yeast as described above. The mixture (cells+antibody) was incubated for 20 minutes on ice, then washed twice with either PBSF pH 7.4 or PBSF pH 6.0. Cells were resuspended in 50 μl of propidium iodide (Roche; 1:500 dilution) and anti-human IgG-RPE (Southern Biotech; 1:100 dilution) prepared in either PBSF pH 7.4 or PBSF pH 6.0, then incubated for 20 minutes on ice in the dark before cells were washed twice with either PBSF pH 7.4 or PBSF pH 6.0. Binding was analyzed on FACS Canto 11.

[2] = biological target: T1, cynomolgus CD3 on HSC-F cells; assay: flow cytometry, yeast-produced IgG 100 nM on HSC-F cells, pH 7.4
Method: as §1, §2

[3] = biological target: T2, human CD3 on CD3+ Jurkat cells (human, UniProt P07766 23-207); assay: flow cytometry, yeast-produced IgG 100 nM on CD3+ Jurkat cells, pH 6.0
T2 construct: whole, on cells; The whole CD3 complex stands on the cells; also called Human CD3 Jurkat; human CD3+ Jurkat cells
Method: as §1, §2

[4] = biological target: T2, human CD3 on CD3+ Jurkat cells; assay: flow cytometry, yeast-produced IgG 100 nM on CD3+ Jurkat cells, pH 7.4
Method: as §1, §2

[5] = biological target: T3, cynomolgus CD3εδ-Fc heterodimer (Cy CD3ε Fc / CD3δ Fc-HIS) (cynomolgus, UniProt Q95LI8 22-100); assay: BLI (Octet), CHO-produced IgG on AHC sensor, CD3εδ-Fc 100 nM in solution, pH 6.0
T3 construct: range 22-100; Produced in HEK 293 cells; also called Cy CD3εδ Fc heterodimer; not shown: Fc-HIS part of CD3δ Fc-HIS
Method: (§3) Anti-CD3 antibodies Antibody Nos. 1-13 were produced as human IgG1 antibodies in yeast or CHO cells. IgGs produced in yeast were aglycosylated, CHO) produced IgGs had standard CH2 glycosylation. Binding affinity to human or cynomolgus CD3εδ-Fc at pH 7.4 and pH 6.0 was measured via biolayer interferometry (BLI) using the ForteBio OCTET® HTX system and analyzed using the ForteBio software.
(§4) Kinetics were analyzed using the 1:1 binding model.

[6] = biological target: T4, human CD3εδ-Fc heterodimer (Hu CD3ε Fc / CD3δ Fc-HIS) (human, UniProt P04234 22-100); assay: BLI (Octet), yeast-produced IgG on AHC sensor, CD3εδ-Fc 100 nM in solution, pH 6.0
T4 construct: range 22-100; Produced in HEK 293 cells with a heterologous signal peptide; heterodimer purified by Ni Sepharose and Mono Q; also called Hu CD3εδ Fc heterodimer; CD3εδ Fc-HIS heterodimer; not shown: Fc-HIS part of CD3δ Fc-HIS
Method: as §3, §4

[7] = biological target: T3, cynomolgus CD3εδ-Fc heterodimer (Cy …); assay: as above
Method: as §3, §4

[8] = biological target: T3, cynomolgus CD3εδ-Fc heterodimer (Cy …); assay: BLI (Octet), yeast-produced IgG on AHC sensor, CD3εδ-Fc 100 nM in solution, pH 7.4
Method: as §3, §4

[9] = biological target: T4, human CD3εδ-Fc heterodimer (Hu CD3ε Fc …); assay: as above
Method: as §3, §4

[10] = biological target: T4, human CD3εδ-Fc heterodimer (Hu CD3ε Fc …); assay: SPR (Biacore 8K), yeast-produced Fab, monovalent, pH 6.0
Method: (§5) Anti-CD3 antibodies (Antibody Nos. 1-13) were produced as human IgG1 antibodies in yeast or Chinese hamster ovary (CHO) cells, and Fab fragments were generated from the IgG1 antibodies by papain digestion and purified IgGs produced in yeast were aglycosylated. CHO produced IgGs had standard CH2 glycosylation. […] Monovalent binding affinity to human or cynomolgus CD3εδ-Fc at pH 7.4 and pH 6.0 were measured via surface plasmon resonance (SPR) using the BIACORE® 8K (Cytiva, previously GE Healthcare Life Sciences) system and analyzed using BIACORE® Evaluation Software.
(§6) BIACORE® KD measurements (surface plasmon resonance; SPR). BIACORE® affinity measurements were performed generally as previously described. Briefly, human CD3εδ-Fc heterodimer produced as described above was immobilized to a NiNTA sensor chip in a BIACORE® 8K (Cytiva, previously GE Healthcare Life Sciences) to a response level of ˜500 RUs. […] The sensor chip was doubly regenerated between cycles using 0.35 M EDTA and 0.1 M NaOH. The resulting data were double reference subtracted and fit to a 1:1 binding model using BIACORE® Evaluation Software.

[11] = biological target: T4, human CD3εδ-Fc heterodimer (Hu CD3ε Fc …); assay: SPR (Biacore 8K), yeast-produced Fab, monovalent, pH 7.4
Method: as §5, §6

[12] = biological target: T4, human CD3εδ-Fc heterodimer (Hu CD3ε Fc …); assay: SPR (Biacore 8K), CHO-produced Fab, monovalent, pH 6.0
Method: as §5, §6

[13] = biological target: T3, cynomolgus CD3εδ-Fc heterodimer (Cy …); assay: as above
Method: as §5, §6

[14] = biological target: T4, human CD3εδ-Fc heterodimer (Hu CD3ε Fc …); assay: BLI (Octet), CD3εδ-Fc on AHC sensor, CHO-derived Fab 100 nM in solution, pH 6.0

T1 sequence (Q95LI5 22-198): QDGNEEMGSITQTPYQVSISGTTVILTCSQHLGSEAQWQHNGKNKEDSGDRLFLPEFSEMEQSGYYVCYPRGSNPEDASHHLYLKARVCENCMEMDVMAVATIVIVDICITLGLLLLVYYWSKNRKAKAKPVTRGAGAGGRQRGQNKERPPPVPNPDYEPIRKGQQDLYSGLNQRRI
T2 sequence (P07766 23-207): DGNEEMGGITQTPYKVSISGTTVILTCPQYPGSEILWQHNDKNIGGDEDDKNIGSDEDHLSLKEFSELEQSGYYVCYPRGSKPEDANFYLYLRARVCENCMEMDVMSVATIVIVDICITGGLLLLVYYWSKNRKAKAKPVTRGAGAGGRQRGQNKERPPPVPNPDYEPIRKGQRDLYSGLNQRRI
T3 sequence (chain, as listed by the source mutant, form in doubt, chain 1 of 2): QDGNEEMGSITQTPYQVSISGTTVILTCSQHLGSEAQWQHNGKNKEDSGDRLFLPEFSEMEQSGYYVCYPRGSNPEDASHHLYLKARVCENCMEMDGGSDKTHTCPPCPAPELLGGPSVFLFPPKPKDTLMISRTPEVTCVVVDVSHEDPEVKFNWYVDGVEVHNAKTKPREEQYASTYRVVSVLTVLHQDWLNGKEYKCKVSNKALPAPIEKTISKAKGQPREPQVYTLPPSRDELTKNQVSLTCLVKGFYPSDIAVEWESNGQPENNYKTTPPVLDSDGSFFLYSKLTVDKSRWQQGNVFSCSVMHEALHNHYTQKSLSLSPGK
T3 sequence (Q95LI8 22-100, stated change not applied, form in doubt, chain 2 of 2): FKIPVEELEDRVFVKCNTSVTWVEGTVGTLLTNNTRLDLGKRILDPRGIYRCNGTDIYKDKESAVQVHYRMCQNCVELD
T4 sequence (chain, as listed by the source mutant, form in doubt, chain 1 of 2): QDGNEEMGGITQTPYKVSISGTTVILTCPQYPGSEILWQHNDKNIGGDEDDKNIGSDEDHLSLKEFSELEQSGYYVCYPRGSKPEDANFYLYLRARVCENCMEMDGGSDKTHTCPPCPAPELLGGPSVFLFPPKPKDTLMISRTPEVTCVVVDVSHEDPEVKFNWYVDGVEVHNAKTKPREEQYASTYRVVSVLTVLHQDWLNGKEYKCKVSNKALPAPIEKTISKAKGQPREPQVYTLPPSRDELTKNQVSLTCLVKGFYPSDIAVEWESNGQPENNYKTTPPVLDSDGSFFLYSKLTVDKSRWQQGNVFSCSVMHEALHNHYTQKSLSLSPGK
T4 sequence (P04234 22-100, stated change not applied, form in doubt, chain 2 of 2): as the sequence (Q95LI8 22-100, stated change not applied, form in doubt, chain 2 of 2) above, with V5I, K15N, V20I, T32S, N33D, N34I, A64T, N74S counted along it

Binder	NCB [1]	NCB [2]	NCB [3]	NCB [4]	Kd [5]	Kd [6]	Kd [7]	Kd [8]	Kd [9]	Kd [10]	Kd [11]	Kd [12]	Kd [13]	Kd [14]
ADI-48587 (Antibody No. 2), human IgG1 (antibody, V domains shown, Tested as human IgG1 (yeast-produced aglycosylated, or CHO-produced); also called Ab No. 2; parent pH-dependent antibody) VH: QVQLVQSGAEVKKPGASVKVSCKASGFNIKDYYMHWVRQAPGQRLEWMGWIDLENANTIYDAKFQGRVTITRDTSASTAYMELSSLRSEDTAVYYCARDHYHRYFYDVWGQGTLVTVSS VL: DIVMTQSPDSLAVSLGERATINCKSSQSLLNARTGHNYLAWYQQKPGQPPKLLIYWASTRESGVPDRFSGSGSGTDFTLTISSLQAEDVAVYYCKQSHSHRTFGGGTKVEIK	437	0	149	0	451 nM	9.33 nM								
ADI-74966 (Antibody No. 4), human IgG1 (antibody, V domains shown, Tested as human IgG1 (yeast-produced aglycosylated, or CHO-produced)) VH: QVQLVQSGAEVKKPGASVKVSCKASGFNIKDYYMHWVRQAPGQRLEWMGWIDLENANTIYDAKFQGRVTITRDTSASTAYMELSSLRSEDTAVYYCARDHYHRYFYDVWGQGTLVTVSS VL: DIVMTQSPDSLAVSLGERATINCKSSQSLLNARTGHNYLAWYQQKPGQPPKLLIYWASTRESGVPDRFSGSGSGTDFTLTISSLQAEDVAVYYCKQSYSHRTFGGGTKVEIK	378	0	131	0	209 nM	6.95 nM	9.71 nM	47.6 nM						
ADI-74965 (Antibody No. 3), human IgG1 (antibody, V domains shown, Tested as human IgG1 (yeast-produced aglycosylated, or CHO-produced)) VH: QVQLVQSGAEVKKPGASVKVSCKASGFNIKDYYMHWVRQAPGQRLEWMGWIDLENANTIYDAKFQGRVTITRDTSASTAYMELSSLRSEDTAVYYCARDAYHRYFYDVWGQGTLVTVSS VL: DIVMTQSPDSLAVSLGERATINCKSSQSLLNARTGHNYLAWYQQKPGQPPKLLIYWASTRESGVPDRFSGSGSGTDFTLTISSLQAEDVAVYYCKQSHSHRTFGGGTKVEIK	551	74	181	39	33.5 nM	6.68 nM	6.56 nM	21.8 nM	13.7 nM					

Results, then the binder that gave them:

NCB [1]	NCB [2]	NCB [3]	NCB [4]	Kd [5]	Kd [6]	Kd [7]	Kd [8]	Kd [9]	Kd [10]	Kd [11]	Kd [12]	Kd [13]	Kd [14]	Binder
512	81	185	34	37 nM	5.94 nM	7.38 nM	21.9 nM	14.5 nM						ADI-74967 (Antibody No. 5), human IgG1 (antibody, V domains shown, Tested as human IgG1 (yeast-produced aglycosylated, or CHO-produced)) VH: QVQLVQSGAEVKKPGASVKVSCKASGFNIKDYYMHWVRQAPGQRLEWMGWIDLENANTIYDAKFQGRVTITRDTSASTAYMELSSLRSEDTAVYYCARDHYHRYFYDVWGQGTLVTVSS VL: GIVMTQSPDSLAVSLGERATINCKSSQSLLNARTGKNYLAWYQQKPGQPPKLLIYWASTRESGVPDRFSGSGSGTDFTLTISSLQAEDVAVYYCKQSHSHRTFGGGTKVEIK
									1.96 nM	8.5 nM				Fab of ADI-79845 (Antibody No. 11) (Fab, V domains shown, Fab made by papain digestion of the yeast-produced human IgG1; also called Antibody No. 11 Fab; ADI-79845 Fab) VH: QVQLVQSGAEVKKPGASVKVSCKASGFNIKDYYMHWVRQAPGQRLEWMGWIDLENANTIYDAKFQGRVTITRDTSASTAYMELSSLRSEDTAVYYCARDAYGRYFYDVWGQGTLVTVSS VL: DIVMTQSPDSLAVSLGERATINCKSSQSLLNARTGKNYLAWYQQKPGQPPKLLIYWASTRESGVPDRFSGSGSGTDFTLTISSLQAEDVAVYYCKQSYSHRTFGGGTKVEIK
									5.76 nM	33.4 nM				Fab of ADI-79848 (Antibody No. 9) (Fab, V domains shown, Fab made by papain digestion of the yeast-produced human IgG1; also called Antibody No. 9 Fab; ADI-79848 Fab) VH: QVQLVQSGAEVKKPGASVKVSCKASGFNIKDYYMHWVRQAPGQRLEWMGWIDLENANTIYDAKFQGRVTITRDTSASTAYMELSSLRSEDTAVYYCARDAYGRYFYDVWGQGTLVTVSS VL: DIVMTQSPDSLAVSLGERATINCKSSQSLLNARTGHNYLAWYQQKPGQPPKLLIYWASTRESGVPDRFSGSGSGTDFTLTISSLQAEDVAVYYCKQSYSRRTFGGGTKVEIK
									16.3 nM		19.5 nM	26.1 nM	36.7 nM	Fab of ADI-74966 (Antibody No. 4) (Fab, V domains shown, Fab made by papain digestion of the human IgG1 (yeast- or CHO-produced); also called Antibody No. 4 Fab; ADI-74966 Fab) VH: QVQLVQSGAEVKKPGASVKVSCKASGFNIKDYYMHWVRQAPGQRLEWMGWIDLENANTIYDAKFQGRVTITRDTSASTAYMELSSLRSEDTAVYYCARDHYHRYFYDVWGQGTLVTVSS VL: DIVMTQSPDSLAVSLGERATINCKSSQSLLNARTGHNYLAWYQQKPGQPPKLLIYWASTRESGVPDRFSGSGSGTDFTLTISSLQAEDVAVYYCKQSYSHRTFGGGTKVEIK
548	106	197	62	17 nM	5.23 nM	5.26 nM	20.5 nM	13 nM						ADI-74968 (Antibody No. 6), human IgG1 (antibody, V domains shown, Tested as human IgG1 (yeast-produced aglycosylated, or CHO-produced)) VH: QVQLVQSGAEVKKPGASVKVSCKASGFNIKDYYMHWVRQAPGQRLEWMGWIDLENANTIYDAKFQGRVTITRDTSASTAYMELSSLRSEDTAVYYCARDAYHRYFYDVWGQGTLVTVSS VL: DIVMTQSPDSLAVSLGERATINCKSSQSLLNARTGHNYLAWYQQKPGQPPKLLIYWASTRESGVPDRFSGSGSGTDFTLTISSLQAEDVAVYYCKQSYSHRTFGGGTKVEIK
